According to US20200071424A1 (SHIONOGI, published 2020):
Residue numbers refer to the chain shown, from its start. Read-outs that look alike come from different tables or passages of the source.

T1: human [1-305]-mouse chimeric EL (human; mouse, UniProt Q9WVG5 306-500)
T1 construct: Heparin extract, captured or detected by an anti-C2-tag antibody; also called human-mouse chimeric EL
T1 sequence: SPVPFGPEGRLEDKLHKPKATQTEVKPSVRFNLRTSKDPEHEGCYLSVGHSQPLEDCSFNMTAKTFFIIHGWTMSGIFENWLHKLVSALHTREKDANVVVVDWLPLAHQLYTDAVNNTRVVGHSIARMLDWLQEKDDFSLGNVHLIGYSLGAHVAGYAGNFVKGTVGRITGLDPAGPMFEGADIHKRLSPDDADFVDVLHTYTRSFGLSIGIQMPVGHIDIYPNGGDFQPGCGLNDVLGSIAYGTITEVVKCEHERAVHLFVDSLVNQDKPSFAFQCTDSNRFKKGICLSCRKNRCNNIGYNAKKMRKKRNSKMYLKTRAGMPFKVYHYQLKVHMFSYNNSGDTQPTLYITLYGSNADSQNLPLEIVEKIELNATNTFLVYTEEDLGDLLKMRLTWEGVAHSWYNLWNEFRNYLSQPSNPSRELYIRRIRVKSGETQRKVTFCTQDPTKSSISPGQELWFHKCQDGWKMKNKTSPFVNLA

T2: human [202-500]-mouse chimeric EL (mouse; human, UniProt Q9WVG5 21-201)
T2 construct: Heparin extract, detected by an anti-C2-tag antibody
T2 sequence: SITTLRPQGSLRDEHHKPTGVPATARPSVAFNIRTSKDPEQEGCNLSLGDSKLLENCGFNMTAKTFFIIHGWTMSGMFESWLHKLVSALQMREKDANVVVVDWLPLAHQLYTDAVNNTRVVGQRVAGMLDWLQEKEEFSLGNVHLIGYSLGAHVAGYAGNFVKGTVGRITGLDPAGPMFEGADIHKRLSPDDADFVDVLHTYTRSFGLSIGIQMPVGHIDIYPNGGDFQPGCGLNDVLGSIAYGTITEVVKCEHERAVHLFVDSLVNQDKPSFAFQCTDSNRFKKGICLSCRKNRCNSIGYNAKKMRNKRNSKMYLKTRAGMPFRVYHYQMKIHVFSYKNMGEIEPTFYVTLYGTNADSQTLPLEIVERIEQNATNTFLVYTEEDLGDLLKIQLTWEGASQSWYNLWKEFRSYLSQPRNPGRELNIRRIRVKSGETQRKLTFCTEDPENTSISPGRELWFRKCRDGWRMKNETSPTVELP

T3: mouse EL (mouse, UniProt Q9WVG5 21-500)
T3 construct: Heparin extract
T3 sequence (looked up): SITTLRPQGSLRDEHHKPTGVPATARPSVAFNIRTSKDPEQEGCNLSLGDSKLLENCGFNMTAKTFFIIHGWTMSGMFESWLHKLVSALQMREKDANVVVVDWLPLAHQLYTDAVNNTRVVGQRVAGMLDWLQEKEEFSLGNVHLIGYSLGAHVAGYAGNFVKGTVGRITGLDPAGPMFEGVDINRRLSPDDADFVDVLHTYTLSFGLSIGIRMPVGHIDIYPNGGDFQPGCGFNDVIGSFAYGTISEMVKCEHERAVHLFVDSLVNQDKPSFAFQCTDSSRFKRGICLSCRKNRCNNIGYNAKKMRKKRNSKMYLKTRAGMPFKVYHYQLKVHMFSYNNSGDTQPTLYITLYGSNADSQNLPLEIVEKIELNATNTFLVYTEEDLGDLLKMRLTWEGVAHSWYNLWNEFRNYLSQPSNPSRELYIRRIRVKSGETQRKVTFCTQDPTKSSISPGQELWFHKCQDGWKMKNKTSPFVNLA

T4: human [1-157]-mouse chimeric EL (human; mouse, UniProt Q9WVG5 158-500)
T4 construct: Heparin extract, detected by an anti-C2-tag antibody
T4 sequence: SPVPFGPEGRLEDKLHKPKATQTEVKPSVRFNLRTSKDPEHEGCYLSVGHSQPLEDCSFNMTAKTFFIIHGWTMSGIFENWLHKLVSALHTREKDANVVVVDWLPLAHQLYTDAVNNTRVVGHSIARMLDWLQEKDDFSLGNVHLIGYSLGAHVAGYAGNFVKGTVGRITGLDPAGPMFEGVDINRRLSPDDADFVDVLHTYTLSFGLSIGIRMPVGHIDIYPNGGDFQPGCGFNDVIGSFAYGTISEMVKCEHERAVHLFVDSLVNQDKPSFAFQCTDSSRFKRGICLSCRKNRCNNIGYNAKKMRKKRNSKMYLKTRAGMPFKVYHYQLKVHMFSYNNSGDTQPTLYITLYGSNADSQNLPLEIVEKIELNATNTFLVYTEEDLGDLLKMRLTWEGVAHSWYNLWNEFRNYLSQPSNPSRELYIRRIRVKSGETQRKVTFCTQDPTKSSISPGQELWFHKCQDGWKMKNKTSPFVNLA

B1: 16B3 (antibody, mouse IgG2a, V domains shown)
VH: DVKLVESGGGLVQPGGSLKLSCTASGFTFSGYTMSWVRQTPEKRLELVAEISFARDRAFYPDTVKGRFTISRDNAKNTLYLQMSSLKSEDTAMYYCTRLGGRNHDYWYFDVWGTGTTVTVSS
VL: DIVLTQSPTSLAVSPGQRATISCRASESVEYYGTSLMQWYQQKPGQRPQLLIYAASNVESGVPARFSGSGSGTDFSLNIHPVEEDDIAVYFCQQSWKVPFTFGSGTKLEIK
notes: mouse IgG2a from hybridoma; also called 16B3 (mouse mAb)
B2: 16E7 (antibody, mouse IgG1, V domains shown)
VH: B1 VH with D1E, T23A, G31S, A54T, D56S, T97A, R102N, H104Y
VL: B1 VL with P15L, Q49K, V89M
notes: mouse IgG1 from hybridoma
B3: h16F6-S1 (antibody, V domains shown)
VH: QVQLVQSGAEVKKPGASVKVSCKASGYTFTTYWIAWVRQAPGQGLEWMGEILPGSAKTKYNKKFKGRVTMTRDTSTSTVYMELSSLRSEDTAVYYCAVYDYGADYWGQGTTVTVSS
VL: DIQMTQSPSSLSASVGDRVTITCKASQDVYTAVAWYQQKPGKSPKLLIYSASYRFTGVPSRFSGSGSGTDFTLTISSLQPEDFATYYCQQHYSIPRTFGGGTKVEIK
notes: humanized
B4: 14E1 (antibody, mouse IgG1, V domains shown)
VH: QVQLQQSGAELVKPGASVRLSCKASGYTFTKYTIHWVKQRSGQGLEWIGWFYPGSDSIKYNEKFKDKATLTADKSSRTVYMELSRLTSEDSAVYFCARHEEYTNSLAYWGQGTLVTVSA
VL: DIQMTQTTSSLSASLGDRVTISCRASQDISNYLNWYQQQPDGTVKLLIYYTSRLHSGVPSRFSGSGSGTDYSLTISNLEQEDIATYFCQQGYTLPWTFGGGTNLEIK
notes: mouse IgG1 from hybridoma
B5: 19E7 (antibody, mouse IgG2a, V domains shown)
VH: QVQLQQPGSVLVRPGASVKLSCKASGYTFTTYWMHWVKQRPGQGLEWIGEIHPYSGNNNNNEKFKGKATLTVDTSSSTAYVDLSRLTSEDSAVYYCARYDSNYVFAYWGQGTLVTVSA
VL: QIVLTQSPAIMSASPGEGVTITCSASSSVSYMHWFQQKPGTSPKLWIYSTSNLASGVPARFSGSGSGTSYSLTISRMEAEDAATYYCQQRDSYLTFGSGTKLEVK
notes: mouse IgG2a from hybridoma; also called 19E1(19E7)

Experiments:
baboon EL [1] = target: baboon EL (baboon); assay: cell-based or functional assay
cynomolgus monkey EL [2] = target: cynomolgus monkey EL (cynomolgus monkey); assay: cell-based or functional assay
[3] = target: human-mouse chimeric EL (construct not specified); assay: cell-based or functional assay
rabbit EL = rabbit EL (rabbit); assay: cell-based or functional assay
[4] = target: T1, human [1-305]-mouse chimeric EL; assay: Biacore; EL captured by anti-C2-tag Ab; bivalent fit
Procedure: (§1) The binding affinities of anti-EL antibodies were measured using Biacore. […] Then, anti-EL antibodies were added and the binding affinities were calculated by bivalent fitting of BIAevaluation software.

baboon EL [5] = target: T5, baboon EL (baboon); assay: as above
T5 construct: Heparin extract
Procedure: as §1

cynomolgus monkey EL [6] = target: T6, cynomolgus monkey EL (cynomolgus monkey); assay: as above
T6 construct: Heparin extract; also called cynomolgus EL; Cynomolgus EL
Procedure: as §1

[7] = target: T1, human [1-305]-mouse chimeric EL; assay: cell-based or functional assay
[8] = target: T1, human [1-305]-mouse chimeric EL; assay: ELISA: antibody captured on anti-mouse IgG-Fc plate, EL heparin extract added, detection with biotin anti-C2-tag antibody and HRP-streptavidin, A450
Procedure: (§2) Assay buffer containing 15 μl of anti-EL antibody was added to anti-mouse IgG-Fc antibody-immobilized microtiter plate, and incubated for 2 hr. […] After washing the wells three times with 90 μL of washing buffer, 15 μl of assay buffer containing biotin-labeled anti-C2-tag antibody and HRP-labeled Streptavidin were added to the wells and incubated at room temperature for 1 hr. After washing the wells three times with 90 μL of washing buffer, 15 μL of TMB+—Substrate—Chromogen (DAKO) was added and incubated at room temperature for 30 min and then 15 μL of 0.05 M H2SO₄ was added and absorbance at 450 nm was measured (FIG. 3A to 3K).

[9] = target: T2, human [202-500]-mouse chimeric EL; assay: as above
Procedure: as §2

baboon EL [10] = target: T5, baboon EL; assay: as above
Procedure: as §2

mouse EL [11] = target: T3, mouse EL; assay: as above
Procedure: as §2

cynomolgus monkey EL [12] = target: T6, cynomolgus monkey EL; assay: as above
Procedure: as §2

cynomolgus monkey EL [13] = target: T6, cynomolgus monkey EL; assay: cell-based or functional assay; remark: listed apart in the source
baboon EL [14] = target: T5, baboon EL; assay: Biacore; EL captured by anti-C2-tag Ab; bivalent fit; remark: listed apart in the source
Procedure: (§3) The binding affinities of anti-EL antibodies were measured using Biacore. […] Then, anti-EL humanized antibodies were added and the binding affinities were calculated by bivalent fitting of BIAevaluation software.

mouse EL [15] = target: T3, mouse EL; assay: as above
Procedure: as §3

baboon EL [16] = target: T5, baboon EL; assay: cell-based or functional assay; remark: listed apart in the source
mouse EL [17] = target: T3, mouse EL; assay: cell-based or functional assay
[18] = target: T4, human [1-157]-mouse chimeric EL; assay: ELISA: antibody captured on anti-mouse IgG-Fc plate, EL heparin extract added, detection with biotin anti-C2-tag antibody and HRP-streptavidin, A450
Procedure: as §2

Binder | Neutralizing activity IC50 (baboon EL [1]) | Neutralizing activity IC50 (cynomolgus monkey EL [2]) | Neutralizing activity IC50 [3] | Neutralizing activity IC50 (rabbit EL) | Kd [4] | koff [4] | kon [4] | Kd (baboon EL [5]) | koff (baboon EL [5]) | kon (baboon EL [5]) | Kd (cynomolgus monkey EL [6]) | koff (cynomolgus monkey EL [6]) | kon (cynomolgus monkey EL [6]) | EC50 (read off the curve) [8] | EC50 (read off the curve) [9] | EC50 (read off the curve) (baboon EL [10]) | binding result (mouse EL [11]) | EC50 (read off the curve) (cynomolgus monkey EL [12]) | also measured
B1 | 3 nM | 1.9 nM | 1.3 nM | 6.3 nM | 3.7 nM | 0.00019 s⁻¹ | 51000 M⁻¹ s⁻¹ | 3.2 nM | 9.8e-05 s⁻¹ | 31000 M⁻¹ s⁻¹ | 2.1 nM | 8.9e-05 s⁻¹ | 42000 M⁻¹ s⁻¹ | ~3 ng/mL | ~4 ng/mL | ~5 ng/mL | no binding (tested: about 330 ng/mL) | ~4 ng/mL | Neutralizing activity IC50 [7]: 1.3 nM; Neutralizing activity IC50 (cynomolgus monkey EL [13]): 1.8 nM
B2 | 2.1 nM | 2.5 nM | 1.1 nM | > 40 nM | 1.1 nM | 0.0001 s⁻¹ | 95000 M⁻¹ s⁻¹ | 4.7 nM | 0.00025 s⁻¹ | 53000 M⁻¹ s⁻¹ | – | – | – | ~6 ng/mL | ~8 ng/mL | – | – | ~6 ng/mL | –
B3 | – | – | – | – | – | – | – | – | – | – | – | – | – | – | – | – | – | – | Kd (baboon EL [14]): 0.57 nM; koff (baboon EL [14]): 0.00074 s⁻¹; kon (baboon EL [14]): 1.3e+06 M⁻¹ s⁻¹; Kd (mouse EL [15]): 0.16 nM; koff (mouse EL [15]): 0.00019 s⁻¹; kon (mouse EL [15]): 1.2e+06 M⁻¹ s⁻¹; Neutralizing activity IC50 (baboon EL [16]): 2.6 nM; Neutralizing activity IC50 (mouse EL [17]): 3.1 nM
B4 | 3.3 nM | 2.4 nM | 1.4 nM | 5.9 nM | 5.4 nM | 0.00023 s⁻¹ | 42000 M⁻¹ s⁻¹ | 5.8 nM | 0.00085 s⁻¹ | 150000 M⁻¹ s⁻¹ | 5.9 nM | 0.00069 s⁻¹ | 120000 M⁻¹ s⁻¹ | ~7 ng/mL | ~20 ng/mL | ~20 ng/mL | – | ~10 ng/mL | –
B5 | 2 nM | 1.7 nM | 2.4 nM | 5.7 nM | – | – | – | – | – | – | 3.3 nM | 0.00018 s⁻¹ | 55000 M⁻¹ s⁻¹ | ~6 ng/mL | – | – | no binding (tested: about 330 ng/mL) | ~30 ng/mL | binding result [18]: no binding (tested: about 330 ng/mL)
